Test results from patent US20180142226.

T1: 26mer peptide of γ-gliadin
T1 chain: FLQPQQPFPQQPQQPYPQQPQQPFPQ

T2: 33mer peptide of α-gliadin
T2 chain: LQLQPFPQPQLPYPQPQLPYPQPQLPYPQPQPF

T3: R11-E4E7
T3 chain: QPFPQQPEQIIPQQP

T4: W03-E07
T4 chain: QPFPQPQQPFPWQP

T5: B08-E2E7
T5 chain: PQQPIPQQPQPYPQQ

T6: W02-E07
T6 chain: LQPFPQPQLPYPQPQ


Assays:
[1] = target: T1, 26mer peptide of γ-gliadin
[2] = target: T2, 33mer peptide of α-gliadin
R11-E4E7 = target: T3, R11-E4E7
W03-E07 = target: T4, W03-E07
B08-E2E7 = target: T5, B08-E2E7
W02-E07 = target: T6, W02-E07

| Protein | Activity Improvement over Background (Kuma010) (peptides containing PQL) | Activity Improvement over Background (Kuma010) (peptides containing PQQ) | appearance of peptide breakdown products over time [1] | appearance of peptide breakdown products over time [2] | Activity Improvement over Background (Kuma021) (peptides containing PQL) | Kcat (DQ2.5-glia-ω1) [s⁻¹] | Km (DQ2.5-glia-ω1) [mM] | Vmax (DQ2.5-glia-ω1) [M/s] | kcat/Km (DQ2.5-glia-ω1) [M⁻¹ s⁻¹] | Activity Improvement over Background (Kuma021) (peptides containing PQQ) | Kcat (DQ2.5-glia-α1a) [s⁻¹] | Km (DQ2.5-glia-α1a) [mM] | Vmax (DQ2.5-glia-α1a) [M/s] | kcat/Km (DQ2.5-glia-α1a) [M⁻¹ s⁻¹] | other results |
| --- | --- | --- | --- | --- | --- | --- | --- | --- | --- | --- | --- | --- | --- | --- | --- |
| Kuma020 (protein) AAPTAYTPLDVAQAYQFPEGLDGQGQCIAIIELGGGYDEASLAQYFASLGVPAPQVVSVSVDGASNQPTGDPKGPDGEVELDIEVAGALAPGAKFAVYFAPDTTAGFLDAITTAIHDPTLKPSVVSISWSGPEDSWTSAAIAAMNRAFLDAAALGVTVLAAAGDSGSTSGEQDGLYHVHFPAASPYVLACGGTRLVASGGRIAQETVWNDGPDGGATGGGVSRIFPLPAWQEHANVPPSANPGASSGRGVPDLAGNADPATGYEVVIDGEATVTGGTSAVAPLFAALVARINQKLGKAVGYLNPTLYQLPADVFHDITEGNNDIANRAQIYQAGPGWDPCTGLGSPIGVRLLQALLPSASQPQPGSTENLYFQSGALEHHHHHH | 7-19x (PQL) | 15-35x (PQQ) | Kuma020 demonstrated a moderate amount of activity on both peptides | Kuma020 demonstrated a moderate amount of activity on both peptides |  |  |  |  |  |  |  |  |  |  |  |
| Kuma030 (protein) AAPTAYTPLDVAQAYQFPEGLDGQGQCIAIIELGGGYDEASLAQYFASLGVPAPQVVSVSVDGASNQPTGDPEGPDGEVTLDIEVAGALAPGAKFAVYFAPDTTAGFLDAITTAIHDPTLKPSVVSISWSGPEDSWTSAAIAAMNRAFLDAAALGVTVLAAAGDQGSTSGEQDGLYHVHFPAASPYVLACGGTRLVASGGRIAQETVWNQGPDGGATGGGVSRIFPLPAWQEHANVPPSANPGASSGRGVPDLAGNADPQTGYEVVIDGEATVTGGTSAVAPLFAALVARINQKLGKAVGYLNPTLYQLPADVFHDITEGNNDIANRAQIYQAGPGWDPCTGLGSPIGVRLLQALLPSASQPQPGSTENLYFQSGALEHHHHHH |  |  | In both cases, Kuma030 was the dominant enzyme tested | In both cases, Kuma030 was the dominant enzyme tested | 1.2-2x (PQL) | 27.3 | 8.4 | 2.73e-06 | 3270 | 1.2-2x (PQQ) | 17.4 | 1.9 | 1.74e-06 | 9030 | cleavage products by mass spectroscopy (R11-E4E7): Kuma030 cleaved each peptide after the PQ dipeptide motif; cleavage products by mass spectroscopy (W03-E07): Kuma030 cleaved each peptide after the PQ dipeptide motif; activity relative to Kuma010 (peptides containing PQL): 11-fold more active against peptides containing PQL; activity relative to Kuma040 (peptides containing PQL): Kuma030 is 2-fold more active on PQQ, and 2-fold less active on PQL, than Kuma040; cleavage products by mass spectroscopy (B08-E2E7): Kuma030 cleaved each peptide after the PQ dipeptide motif; activity relative to Kuma010 (peptides containing PQQ): 44-fold more active against peptides containing PQQ; activity relative to Kuma040 (peptides containing PQQ): Kuma030 is 2-fold more active on PQQ, and 2-fold less active on PQL, than Kuma040; cleavage products by mass spectroscopy [2]: Kuma030 cleaved each peptide after the PQ dipeptide motif; cleavage products by mass spectroscopy (W02-E07): Kuma030 cleaved each peptide after the PQ dipeptide motif |
| Kuma040 (protein) AAPTAYTPLDVAQAYQFPEGLDGQGQCIAIIELGGGYDEASLAQYFASLGVPAPQVVSVSVDGASNQPTGDPKGPDGEVTLDIEVAGALAPGAKFAVYFAPDTTAGFLDAITTAIHDPTLKPSVVSISWAGPEDSWTSAAIAAMNRAFLDAAALGVTVLAAAGDSGSTGGEQDGLYHVFFPAASPYVLACGGTRLVASGGRIAQETVWNQGPDGGATGGGVSRIFPLPAWQEHANVPPSANPGASSGRGVPDLAGNADPQTGYEVVIDGEATVTGGTSAVAPLFAALVARINQKLGKAVGYLNPTLYQLPADVFHDITEGNNDIANRAQIYQAGPGWDPCTGLGSPIGVRLLQALLPSASQPQPGSTENLYFQSGALEHHHHHH | 35-50x (PQL) | 30-40x (PQQ); | Kuma040 demonstrated activity almost as potent as Kuma030 especially against the 26mer peptide | Kuma040 demonstrated activity almost as potent as Kuma030 especially against the 26mer peptide |  | 24.6 | 15.3 | 2.46e-06 | 1600 |  | 16.3 | 0.86 | 1.49e-06 | 19100 |  |
| Kuma050 (protein) AAPTAYTPLDVAQAYQFPEGLDGQGQCIAIIELGGGYDEASLAQYFASLGVPAPQVVSVSVDGASNQPTGDPEGPDGEVTVDIEVAGALAPGAKFAVYFAPDTTAGFLDAITTAIHDPTLKPSVVSISWSGPEDSWTSAAIAAMNRAFLDAAALGVTVLAAAGDQGSTSGEQDGLYHVHFPAASPYVLACGGTRLVASGGRIAQETVWNQGPDGGATGGGVSRIFPLPAWQEHANVPPSANPGASSGRGVPDLAGNADPQTGYEVVIDGEATVIGGTSAVAPLFAALVARINQKLGKAVGYLNPTLYQLPADVFHDITEGNNDIANRAQIYQAGPGWDPCTGLGSPIGVRLLQALLPSASQPQPGSTENLYFQSGALEHHHHHH |  |  | very poor activity on the 26mer peptide | Kuma050 demonstrated good activity on the 33mer peptide | 1.5-2x (PQL) | 27.8 | 5 | 2.78e-06 | 56 | 0.01-0.2x (PQQ) | 14.2 | 2.5 | 1.42e-06 | 5610 |  |
| Kuma021 (protein) AAPTAYTPLDVAQAYQFPEGLDGQGQCIAIIELGGGYDEASLAQYFASLGVPAPQVVSVSVDGASNQPTGDPKGPDGEVELDIEVAGALAPGAKFAVYFAPDTTAGFLDAITTAIHDPTLKPSVVSISWSGPEDSWTSAAIAAMNRAFLDAAALGVTVLAAAGDSGSTSGEQDGLYHVHFPAASPYVLACGGTRLVASGGRIAQETVWNQGPDGGATGGGVSRIFPLPAWQEHANVPPSANPGASSGRGVPDLAGNADPQTGYEVVIDGEATVTGGTSAVAPLFAALVARINQKLGKAVGYLNPTLYQLPADVFHDITEGNNDIANRAQIYQAGPGWDPCTGLGSPIGVRLLQALLPSASQPQP |  |  |  |  |  |  |  |  |  |  |  |  |  |  | Activity Improvement over Background (Kuma020) (peptides containing PQL): 1-2x (PQL); Activity Improvement over Background (Kuma020) (peptides containing PQQ): 1.2-2.5x (PQQ) |
